Measured values taken from the supplement of paper PMC10567573.

B1: PHTF1 (parent)
chain: RVKLISNKGTETDNDPSCVHPIIK

Variants of: B1
Experiment: protein stability index of a GFP-peptide fusion (GPS, HEK-293T) (PSI 1-6); higher = more stable
Conditions: c terminus: a fixed tail appended
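Further: lentivirally expressed fusions sorted by FACS into six bins by GFP to DsRed ratio, PSI derived from sequencing read proportions per bin multiplied by bin number.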

In order of falling protein stability index:
1. RVKEISNKGTETDNDPSCVHPIIK  5.13
2. RVKQISNKGTETDNDPSCVHPIIK  5.02
3. RVKTISNKGTETDNDPSCVHPIIK  4.84
4. RVKPISNKGTETDNDPSCVHPIIK  4.82
5. RVKLQSNKGTETDNDPSCVHPIIK  4.8
6. RVKLPSNKGTETDNDPSCVHPIIK  4.8
7. REKLISNKGTETDNDPSCVHPIIK  4.78
8. DVKLISNKGTETDNDPSCVHPIIK  4.74
9. RVKLISNQGTETDNDPSCVHPIIK  4.7
10. RVKLDSNKGTETDNDPSCVHPIIK  4.7
11. RPKLISNKGTETDNDPSCVHPIIK  4.68
12. RQKLISNKGTETDNDPSCVHPIIK  4.65
13. RVELISNKGTETDNDPSCVHPIIK  4.64
14. NVKLISNKGTETDNDPSCVHPIIK  4.63
15. RVKLESNKGTETDNDPSCVHPIIK  4.63
16. RVKLISNGGTETDNDPSCVHPIIK  4.62
17. RVKSISNKGTETDNDPSCVHPIIK  4.61
18. RKKLISNKGTETDNDPSCVHPIIK  4.6
19. RVKAISNKGTETDNDPSCVHPIIK  4.57
20. SVKLISNKGTETDNDPSCVHPIIK  4.56
21. RVPLISNKGTETDNDPSCVHPIIK  4.55
22. RDKLISNKGTETDNDPSCVHPIIK  4.54
23. RVKLISNKGHETDNDPSCVHPIIK  4.52
24. RVKLISNKGQETDNDPSCVHPIIK  4.51
25. RNKLISNKGTETDNDPSCVHPIIK  4.5
26. RVKLIDNKGTETDNDPSCVHPIIK  4.49
27. RVKNISNKGTETDNDPSCVHPIIK  4.48
28. RVKCISNKGTETDNDPSCVHPIIK  4.48
29. RVDLISNKGTETDNDPSCVHPIIK  4.48
30. RVKLISNDGTETDNDPSCVHPIIK  4.45
31. RRKLISNKGTETDNDPSCVHPIIK  4.45
32. QVKLISNKGTETDNDPSCVHPIIK  4.45
33. RVKGISNKGTETDNDPSCVHPIIK  4.44
34. RSKLISNKGTETDNDPSCVHPIIK  4.44
35. PVKLISNKGTETDNDPSCVHPIIK  4.44
36. RVKKISNKGTETDNDPSCVHPIIK  4.43
37. RVKLISNEGTETDNDPSCVHPIIK  4.42
38. RAKLISNKGTETDNDPSCVHPIIK  4.41
39. RVKLNSNKGTETDNDPSCVHPIIK  4.41
40. RVKLLSNKGTETDNDPSCVHPIIK  4.4
41. RVKLIGNKGTETDNDPSCVHPIIK  4.38
42. RVALISNKGTETDNDPSCVHPIIK  4.38
43. RVKLISNKDTETDNDPSCVHPIIK  4.36
44. RVKLIKNKGTETDNDPSCVHPIIK  4.36
45. RTKLISNKGTETDNDPSCVHPIIK  4.35
46. RVKLISNTGTETDNDPSCVHPIIK  4.33
47. RVSLISNKGTETDNDPSCVHPIIK  4.33
48. RVNLISNKGTETDNDPSCVHPIIK  4.32
49. RVKLISNKQTETDNDPSCVHPIIK  4.31
50. RVKLISKKGTETDNDPSCVHPIIK  4.31
51. RVGLISNKGTETDNDPSCVHPIIK  4.31
52. RVKLSSNKGTETDNDPSCVHPIIK  4.3
53. RVKLMSNKGTETDNDPSCVHPIIK  4.3
54. RVKLHSNKGTETDNDPSCVHPIIK  4.3
55. RVKLISNKGPETDNDPSCVHPIIK  4.29
56. RVKLISNKTTETDNDPSCVHPIIK  4.27
57. RVKHISNKGTETDNDPSCVHPIIK  4.27
58. RVKLIQNKGTETDNDPSCVHPIIK  4.26
59. RVKLINNKGTETDNDPSCVHPIIK  4.26
60. RVKLISDKGTETDNDPSCVHPIIK  4.26
61. RVKLISNKGEETDNDPSCVHPIIK  4.26
62. RVKRISNKGTETDNDPSCVHPIIK  4.25
63. RVKLTSNKGTETDNDPSCVHPIIK  4.25
64. RVKWISNKGTETDNDPSCVHPIIK  4.24
65. RVKLISNKETETDNDPSCVHPIIK  4.23
66. RVKLISSKGTETDNDPSCVHPIIK  4.22
67. RVKLISNKSTETDNDPSCVHPIIK  4.21
68. RVKLISNSGTETDNDPSCVHPIIK  4.21
69. RVKLISEKGTETDNDPSCVHPIIK  4.2
70. RHKLISNKGTETDNDPSCVHPIIK  4.2
71. RVKLISNKGAETDNDPSCVHPIIK  4.2
72. RVKLISNKGNETDNDPSCVHPIIK  4.2
73. TVKLISNKGTETDNDPSCVHPIIK  4.2
74. RVKIISNKGTETDNDPSCVHPIIK  4.19
75. RLKLISNKGTETDNDPSCVHPIIK  4.19
76. RVTLISNKGTETDNDPSCVHPIIK  4.19
77. RVKLISNKVTETDNDPSCVHPIIK  4.18
78. RVKDISNKGTETDNDPSCVHPIIK  4.18
79. RIKLISNKGTETDNDPSCVHPIIK  4.18
80. RVKLISNKNTETDNDPSCVHPIIK  4.17
81. RVKLIPNKGTETDNDPSCVHPIIK  4.17
82. GVKLISNKGTETDNDPSCVHPIIK  4.15
83. EVKLISNKGTETDNDPSCVHPIIK  4.14
84. RVKMISNKGTETDNDPSCVHPIIK  4.13
85. RVKLISNKATETDNDPSCVHPIIK  4.12
86. HVKLISNKGTETDNDPSCVHPIIK  4.12
87. RVKLASNKGTETDNDPSCVHPIIK  4.11
88. RVKLISNAGTETDNDPSCVHPIIK  4.1
89. RVKLISNKGDETDNDPSCVHPIIK  4.1
90. RVKLISQKGTETDNDPSCVHPIIK  4.09
91. RVKLISPKGTETDNDPSCVHPIIK  4.09
92. RVKLGSNKGTETDNDPSCVHPIIK  4.09
93. RVQLISNKGTETDNDPSCVHPIIK  4.07
94. KVKLISNKGTETDNDPSCVHPIIK  4.05
95. RVKLISNKHTETDNDPSCVHPIIK  4.03
96. RVKLIHNKGTETDNDPSCVHPIIK  4.03
97. RVKLISAKGTETDNDPSCVHPIIK  4.02
98. RCKLISNKGTETDNDPSCVHPIIK  4.02
99. RVKLFSNKGTETDNDPSCVHPIIK  4.02
100. RVKLISNKGGETDNDPSCVHPIIK  4.01
101. RVKLKSNKGTETDNDPSCVHPIIK  4.01
102. RVKLIANKGTETDNDPSCVHPIIK  4
103. RVKLISTKGTETDNDPSCVHPIIK  4
104. RVKLVSNKGTETDNDPSCVHPIIK  4
105. RVKLISNKKTETDNDPSCVHPIIK  3.98
106. RVKLISNKGMETDNDPSCVHPIIK  3.98
107. RMKLISNKGTETDNDPSCVHPIIK  3.97
108. RVKLCSNKGTETDNDPSCVHPIIK  3.97
109. RVKLISGKGTETDNDPSCVHPIIK  3.96
110. RVKLISNNGTETDNDPSCVHPIIK  3.96
111. RVKLISNKPTETDNDPSCVHPIIK  3.95
112. RVKLITNKGTETDNDPSCVHPIIK  3.95
113. RVKLISNRGTETDNDPSCVHPIIK  3.95
114. RVKLISNKGKETDNDPSCVHPIIK  3.95
115. RVKLISNHGTETDNDPSCVHPIIK  3.94
116. CVKLISNKGTETDNDPSCVHPIIK  3.93
117. RVRLISNKGTETDNDPSCVHPIIK  3.92
118. RVKLISNKGRETDNDPSCVHPIIK  3.91
119. RVKFISNKGTETDNDPSCVHPIIK  3.9
120. RVKLISNVGTETDNDPSCVHPIIK  3.88
121. RVKLISNKGSETDNDPSCVHPIIK  3.88
122. RVKVISNKGTETDNDPSCVHPIIK  3.86
123. RVKLRSNKGTETDNDPSCVHPIIK  3.86
124. RVKLIENKGTETDNDPSCVHPIIK  3.85
125. RVHLISNKGTETDNDPSCVHPIIK  3.83
126. RVKLISNKGCETDNDPSCVHPIIK  3.8
127. RVKLISHKGTETDNDPSCVHPIIK  3.79
128. RVKLISNIGTETDNDPSCVHPIIK  3.78
129. RVKLISVKGTETDNDPSCVHPIIK  3.77
130. RVKYISNKGTETDNDPSCVHPIIK  3.77
131. RVKLICNKGTETDNDPSCVHPIIK  3.76
132. RVKLISNKMTETDNDPSCVHPIIK  3.75
133. RVKLYSNKGTETDNDPSCVHPIIK  3.75
134. RVKLISNKGIETDNDPSCVHPIIK  3.74
135. RVMLISNKGTETDNDPSCVHPIIK  3.67
136. MVKLISNKGTETDNDPSCVHPIIK  3.66
137. RVKLISNKLTETDNDPSCVHPIIK  3.64
138. RVKLISCKGTETDNDPSCVHPIIK  3.64
139. RVKLISNPGTETDNDPSCVHPIIK  3.64
140. RVKLIRNKGTETDNDPSCVHPIIK  3.62
141. RWKLISNKGTETDNDPSCVHPIIK  3.61
142. RVKLISIKGTETDNDPSCVHPIIK  3.6
143. RVKLWSNKGTETDNDPSCVHPIIK  3.6
144. RVKLISNKCTETDNDPSCVHPIIK  3.56
145. RVKLISNFGTETDNDPSCVHPIIK  3.56
146. RVKLISNKRTETDNDPSCVHPIIK  3.54
147. RYKLISNKGTETDNDPSCVHPIIK  3.54
148. RVKLIVNKGTETDNDPSCVHPIIK  3.52
149. RGKLISNKGTETDNDPSCVHPIIK  3.52
150. RVCLISNKGTETDNDPSCVHPIIK  3.52
151. LVKLISNKGTETDNDPSCVHPIIK  3.51
152. RVKLISRKGTETDNDPSCVHPIIK  3.47
153. RVKLISNKYTETDNDPSCVHPIIK  3.44
154. VVKLISNKGTETDNDPSCVHPIIK  3.41
155. RVKLISNKGVETDNDPSCVHPIIK  3.38
156. RVKLISNKGLETDNDPSCVHPIIK  3.38
157. RVKLISMKGTETDNDPSCVHPIIK  3.36
158. RVKLISLKGTETDNDPSCVHPIIK  3.36
159. RVKLIYNKGTETDNDPSCVHPIIK  3.34
160. RVKLISNLGTETDNDPSCVHPIIK  3.33
161. RVKLISYKGTETDNDPSCVHPIIK  3.32
162. RVFLISNKGTETDNDPSCVHPIIK  3.29
163. RVVLISNKGTETDNDPSCVHPIIK  3.29
164. RFKLISNKGTETDNDPSCVHPIIK  3.26
165. RVKLISNKITETDNDPSCVHPIIK  3.25
166. RVKLIINKGTETDNDPSCVHPIIK  3.23
167. RVKLISNYGTETDNDPSCVHPIIK  3.22
168. RVKLISNKFTETDNDPSCVHPIIK  3.19
169. IVKLISNKGTETDNDPSCVHPIIK  3.16
170. RVKLISNMGTETDNDPSCVHPIIK  3.15
171. RVKLIMNKGTETDNDPSCVHPIIK  3.14
172. RVKLISWKGTETDNDPSCVHPIIK  3.1
173. RVKLISNKGFETDNDPSCVHPIIK  3.1
174. RVKLISNCGTETDNDPSCVHPIIK  3.04
175. RVKLILNKGTETDNDPSCVHPIIK  2.97
176. RVKLISFKGTETDNDPSCVHPIIK  2.92
177. RVKLISNWGTETDNDPSCVHPIIK  2.89
178. RVKLIWNKGTETDNDPSCVHPIIK  2.86
179. RVYLISNKGTETDNDPSCVHPIIK  2.86
180. RVILISNKGTETDNDPSCVHPIIK  2.81
181. WVKLISNKGTETDNDPSCVHPIIK  2.81
182. RVKLISNKWTETDNDPSCVHPIIK  2.8
183. YVKLISNKGTETDNDPSCVHPIIK  2.79
184. RVKLIFNKGTETDNDPSCVHPIIK  2.77
185. RVLLISNKGTETDNDPSCVHPIIK  2.72
186. RVKLISNKGWETDNDPSCVHPIIK  2.66
187. RVWLISNKGTETDNDPSCVHPIIK  2.56
188. FVKLISNKGTETDNDPSCVHPIIK  2.21
